Source: the DeepSol protein solubility set

Assay: soluble on expression in E. coli; label from the status in PepcDB or PDB records

Sequence	soluble on expression in E. coli
MPSSGQLYGDEERELTPTPAIPEEGVYEVKYSNRRTNVVRLLPNGFQERKLRRLANLSAKLFNEVNFERRQQFFHEGKVNIEETYKKYYEKYKVILGVNAQAVLNKNNEAWSSFFSLLKLKKEGKLPPHMNHVSPPGYWKDREAGKRKQILVIRQDRYKVDAENHKLILKDFDMEIDFIGRLKWYGKQGRLEIIFDETRNAWYAHIPIEVGVEETKAGKKSKHVVKGERKSIQISKPKGNKVASIDLGINVIASVVVNDGTWLLYKGVRTKEDYFYFQKRIAEVQSLADRTRNIGEYDAYLELLREKRRLFKKLTRRLTHLYRNLASHLIETLYELGVSTIYLGYPFNIVQEKGNKFTVNMWSYRKLMESIELKAQEYGMKVFEVVEYNTSKYCAYHDVEVKRNPRGVINCPLGHKLHSDLNGALNILKKALGVIVNAVKKPLSFIVDHNRVAPIKGCNPLEHHHHHH	not soluble
GSHMTMSRRNTDAITIHSILDWIEDNLESPLSLEKVSERSGYSKWHLQRMFKKETGHSLGQYIRSRKMTEIAQKLKESNEPILYLAERYGFESQQTLTRTFKNYFDVPPHKYRMTNMQGESRFLHPLNHYNS	soluble
GPGSMRYFVVAHEFQAEEDVELSVFKGEILCATEGVAQDGWIKVEATTDARRRGFVPMSYLREISAAEASTSMSAPASSAPPLTGESTSPMRTPQRAGGESSARAALANTTVSTSLDLGNCSGVVAKGFSPSLQPMRSPETTAVHAAPASSSIHLTPAQQAAGPVSRHLLENPNAVVDAFMKNEVYFNQLMQRRASALAQMQSGLEEAMTEVAACKDRSAVLTRKLHDLDGVVERERQRWMDRVEEEKVHVSRSIPYSAPLAVPVSSGTTPLRSPIIGPHSGVGRSVLDDDSPRQLRA	soluble
MVEQIKDKLGRPIRDLRLSVTDRCNFRCDYCMPKEVFGDDFVFLPKNELLTFDEMARIAKVYAELGVKKIRITGGEPLMRRDLDVLIAKLNQIDGIEDIGLTTNGLLLKKHGQKLYDAGLRRINVSLDAIDDTLFQSINNRNIKATTILEQIDYATSIGLNVKVNVVIQKGINDDQIIPMLEYFKDKHIEIRFIEFMDVGNDNGWDFSKVVTKDEMLTMIEQHFEIDPVEPKYFGEVAKYYRHKDNGVQFGLITSVSQSFCSTCTRARLSSDGKFYGCLFATVDGFNVKAFIRSGVTDEELKEQFKALWQIRDDRYSDERTAQTVANRQRKKINMNYIGG	soluble
MGSDKIHHHHHHMTSVEPTKAVLFLQGPPSILWTEFARAFEQAGVKTHHVNFTLGDFLFWRKRGAKNYRGSFSKWPAYLRRLIAEKGITDIVYYADRLPYHAKAAEIGEELGVRCHAVEWGYLRPDWLTFERDGMGRFSHFPNDPKAIRAIAAKVEEPDIAVKYPHTFGQEAFNEVIYNLLNFFGRPFYPLYNADKYYSALVDYLPWLLKAGVKPARLPEGFLEDGQPPFYLVALQLQSDYQIRANSPYRHLRDMMRQVIASFVKNAPAGSKLLFKQHPLDNGLERWHKVLRHIAREFKIEDRVVFIEEGDLHDILQKTAGVVIVNSTVGLHSLRAQKPTIVLGCAVFDVPGLTHQGRLDDFWKRPEPVDPELMRDLVKAMAATIQIKGDFFNKAGRQAAIGAMVQRVIEGTVNMPDAFIDPPPRLTSPKGILTVLGRPVELDWEEDAAVPDMTYARSGPIR	not soluble
MASQGFSVYVGNVPYQGTEEEIGNYFAAVGHVNNVRIVYDRETGRPRGFAFVEFSEEAGAQRAVEQLNGVAFNGRNLRVNYANK	soluble
MEDLEEDVRFIVDETLDFGGLSPSDSREEEDITVLVTPEKPLRRGLSHRSDPNAVAPAPQGVRLSLGPLSPEKLEEILDEANRLAAQLEQCALQDRESAGEGLGPRRVKPSPRRETFVLKDSPVRDLLPTVNSLTRSTPSPSSLTPRLRSNDRKGSVRALRATSGKRPSNMKRESPTCNLFPASKSPASSPLTRSTPPVRGRAGPSGRAAASPPTPIRSVLAPQPSTSNSQRLPRPQGAAAKSSSQLPIPSAIPRPASRMPLTSRSVPPGRGALPPDSLSTRKGLPRPSTAGHRVRESGHKVPVSQRLNLPVMGATRSNLQPPRKVAVPGPTR	soluble
KYNMGNANYRIQKELHNFLNNPPINCTLDVHPNNIRIWIVKYVGLENTIYANEVYKLKIIFPDDYPLKPPIVYFLQKPPKHTHVYSNGDICLSLLGDDYNPSLSISGLVLSIISMLSSAKEKKLP	soluble
MRYIRLCIISLLATLPLAVHASPQPLEQIKLSESQLSGRVGMIEMDLASGRTLTAWRADERFPMMSTFKVVLCGAVLARVDAGDEQLERKIHYRQQDLVDYSPVSEKHLADGMTVGELCAAAITMSDNSAANLLLATVGGPAGLTAFLRQIGDNVTRLDRWETELNEALPGDARDTTTPASMAATLRKLLTSQRLSARSQRQLLQWMVDDRVAGPLIRSVLPAGWFIADKTGAGERGARGIVALLGPNNKAERIVVIYLRDTPASMAERNQQIAGIGAALIEHWQR	soluble
MEPRTIACPHKGCTKMFRDNSAMRKHLHTHGPRVHVCAECGKAFVESSKLKRHQLVHTGEKPFQCTFEGCGKRFSLDFNLRTHVRIHTGDRPYVCPFDGCNKKFAQSTNLKSHILTHAKAKNNQ	soluble
MINAKVHVAVPTAFYADESLNISATLAHAQYLLDHQIESVMLCGSTGEQHSLDLDEKIALARAVDRAEWPQGAEIIFGVSAIRQSHAVRLAQVVAQCERIDAILVGFPPYIRPTQDQARRFVTAITQTAGKPAIIYNNPARTGFDASASTLAQLCMLPDVIGVKDPGGAPKLAEVSREIAPFRARYYAGGELDLHAKVAHGYTYLSSIVGNIAPEETVAWFNALRHGEEYESSSRLQELIDQLFAHHPIQFLKEKISTQEGINMGSCRLPLGPIAD	not soluble
MGHHHHHHSHMTDPSKLAVAVVCSSNMNRSMEAHNFLAKKGFNVRSYGTGERVKLPGMAFDKPNVYEFGTKYEDIYRDLESKDKEFYTQNGLLHMLDRNRRIKKCPERFQDTKEQFDIIVTVEERVYDLVVMHMESMESVDNRPVHVLNVDVVDNAEDALMGAFVITDMINMMAKSTDLDNDIDELIQEFEERRKRVILHSVLFY	soluble
MEVRFTRGKSAILERSLTRPKTEVSVSAFALLFSEMVQYCQSRVYSVSELQARLADMGQGVGASLLDVLVMREKNGKRETKVLNILLFIKVNVWKALFGKEADKLEQANDDDKTYYIIEKEPLINAYISVPKENSTLNCAAFTGGIVEAILTHSGFPAKVTVHWHKGTTLMIKFDESVIARDKALDGR	soluble
GHMKLKTKTMEWSGNSLKLLDQRKLPFIEEYVECKTHEEVAHAIKEMIVRGAPAIGVAAAFGYVLGLRDYKTGSLTDWMKQVKETLARTRPTAVNLFWALNRMEKVFFENADRENLFEILENEALKMAYEDIEVNKAIGKNGAQLIKDGSTILTHCNAGALATVDYGTALGVIRAAVESGKRIRVFADETRPYLQGARLTAWELMKDGIEVYVITDNMAGWLMKRGLIDAVVVGADRIALNGDTANKIGTYSLAVLAKRNNIPFYVAAPVSTIDPTIRSGEEIPIEERRPEEVTHCGGNRIAPEGVKVLNPAFDVTENTLITAIITEKGVIRPPFEENIKKILEVGS	soluble
MGSDKIHHHHHHMNPLETLWQLAANSVKADVLHLALEQQIFDRLEDVTAPEQLAESLGWQPEKTGFLLEILWSMQLLTRHHGGYRTASASSAVLCRSSPRFLGDAWRFRLTSLRQFGQGLADGMHQPLPAQLSELPRDAAWASAAEQQIAQEQRSITADLADQLLSRLPDFPQIRHVLDLGGGPGWVAITLALRHAQISGTIYDLPQTAAVAQRNINAAGLSARLSAQSGAFPSEKYDLIWSSSFLHFVEDIPAMLSTLYNTLTPDGSLVLAQAEIPEEADDAAPILPFYLPMQISGRHVTQEGQLTQWLVEAGFTSVETRRHQAFPMAPLNVLIARKHR	not soluble
MSEPADLIGEIDALGIKLQEARASITRRFIGQERVVDLTLTALLCGGHALLIGLPGLGKTRLVETLSTVMGLHGNRIQFTPDLMPADILGSEVLDTAEDGSRRFRFIPGPIFCQLLMADEINRASPRTQSALLQAMQEKTVTVAGENRPLGTPFHVLATQNPIEQEGTYPLPEAQLDRFLVQIDVDYPDRATEREILLATTGVEEAEAHQVMSQADLLGAQVLLRRMPVGESVVEMILDLVRAFRPDEPGVSDRVRDTVAWGPGPRAAQALMLTVRARALLQGRLAPSPEDVLDMARPVLSHRMALNFAARARGDTLAGLIDETAASLTRTEAAALEHHHHHH	not soluble
ENKTLDEVTSDLVSRGAKFVGEELQLDVGGLLLHFFNYNGKIVVSSMKKVGFLQTLNRKRLENHPSFVFLEKEVPKSVFLEVFVDLYTLFDKLLGFSPRSSLLLIGYEEDGLIKYRLEVM	not soluble
MGSDKIHHHHHHMDEKGLADCHTPTNGGNQKIKFVNEPNLYRIIFRSNKPEAKQFQDWVFNEVLPTIRKTGKYEAPKPVEKRNYLNNSDMNNIKRLIWTCADHFGHKGSFNQAIWACLRDVTGVPSPAKFEVEHLPVLAEEFKRILNIVQPFLDMQYECQTLLIKRVIRGRADHTVLQALLDNMRNAANQSDNQFKEALQKQLPAMFNQECLNLINRRPNHYDHYEYNERLI	not soluble
MSLHVKVIVFGGSGFLGSHLVNRLDADEMVYFSLEKGNSVTRKDAKWVSGDVTDYSKVAEAMKDVDVAIFAVEDWNADEKRNREILLDGIKNVVNAVKANNTEQKVVSFSIINHPSYPLEFFRTKRLVEDNTRVLKNGLVVRLSFLFGEGDHFTDRFRKLSERVGHLSPEGNLAPVYVDDVVKVVNSILKREGVYDICSNDNLPLIKIVNYIRKMNGKKEIGETKLEKAISAVVETGLFAEYEAHLLFQDYYRETNILDRYVKDPLSYLDFLRGISVTHTTEGHHHHHH	soluble
MAGDPMADQEANAEQPMPKAEQKKPEKKAVQVQKKEDDTSAWIKTEKPAKLPILMYHSISSGNSLRVPKKEFEAHMKWLHDNGYQTLTPKEASLMLTQDKKPSEKCVLITFDDGYTDNYQDAYPVLKKYGMKATIFMIGKSIGHKHHLTEEQMKEMAQHGISIESHTIDHLELNGLTPQQQQSEMADSKKLFDNMFHQQTTIISYPVGRYNEETLKAAEKTGYQMGVTTEPGAASRDQGMYALHRVRVSPGMSGSAFGAYIESMKLEHHHHHH	soluble
ICMNVENEVTHTQLQFNHTDKYCGNIKNLISCKLYQHALTLIDSFRHDKSI	not soluble
MKVRYLTSALLLAMTSGLAAAASVDIRHEYVPDRDGDEHRDRIYVSHRFDNQIGFSVEAKWNYKDGHMGNAGHETGVSYRWKATDNFSLTPGINIDASPSGASVFKYNLTGAYKINDEWDVAARIRHGYKNTDDSRYNQLNLYANRKFEWGKLGVEAEYKDIHGGEGGWKDKGHDQLIDFKGEYTKLESGVIPFFAIAAITHKGDGSEFKDEYVPRFRVGLKYNF	not soluble
NTQITIKMEPDTQALEEVVVIGYGAVKKRDLTGAVSSVKNEDITLTPATNPMQALQGRVAGLDITQASGQPGEGPKLQLRGTRSFTASGDPMFIIDGMPGDYSTLNPNDIESIEVLKDASSTAVYGAAGANGVIIITTKSGKAGK	not soluble
MSLDRVEVLGVEFVEFTADQTEAEALGSLLGAMGFRAVASHREKAVTLWRQGCDHRGINVVINTEQKGFAHSSYLVHGASAYAIGLKVPDASAAVERARALGAEIFLPESGEGEGAMAAIRGMGGGLIYFVDEIDDVWSREFVAPGDDRQPAATLVAIDHVAQSMKEEQLPSWLLFYTSILDADKLAQVDIVDPAGLVRSQVVENASGTLRLTLNGADNHRTLAGHFIAESFGSGVQHVAFRTDDIFEAAEHMRRSGFRALAISRNYYDDIEVRFALEPGFVDRLRDENILYDRDEDGEYFQIYGPTFGEGFFFEIVERRSGYRGYGAANAPFRIAAQKRCLRPAGMPAEGSSRVDLQVCRPKKGIITITTDPNSSSVDKLAAALEHHHHHH	soluble
